Series [1] can be described thus: IAsys optical biosensor, AVR4/5 forms binding to 2-iminobiotin surface. To be noted: for Kd: 20° C. Here is the method:
The biotin-binding characteristics of the different avidins were studied using an IAsys optical biosensor at 20° C. The reversibility of binding and binding affinities to the 2-iminobiotin surface in 50 mM borate buffer (pH 9.5, 1 M NaCl) were measured as previously reported (Laitinen, O. H., Hytönen, V. P., Ahlroth, M. K., Pentikäinen, O. T., Gallagher, C., Nordlund, H. R., Ovod, V., Marttila, A. T., Porkka, E., Heino, S., Johnson, M. S., Airenne, K. J. & Kulomaa, M. S. (2002) Biochem. J. 363, 609-617).
Briefly, The 2-iminobiotin ligand was immobilized onto the carboxymethyldextran surface of a cuvette using N-hydroxysuccinimide activation. Binding of various concentrations of avidin or avidin mutants onto 2-iminobiotinylated surface were measured in a 50 mM borate buffer (pH 9.5) containing 1 M NaCl at 20° C. The iminobiotin cuvettes were regenerated with 20 mM HCl. The kinetic rate constants for association (kass) and dissociation (kdiss) were calculated using the Fast Fit program package (Affinity Sensors). The obtained rate constants were used to calculate Kd(rel) according to Kd=kdiss/kass. Equilibrium data obtained from measurements with different protein concentrations were used to calculate the dissociation constant Kd(eq).

Series [2] can be described thus: Microparticle analysis, BF523-biotin binding of protein-coated particles before and after 95° C. The format is physicochemical. Here is the method:
Before the analysis, 3.22 μm microparticles with COOH-group/0.852 nm2 (Bangs laboratories, Fishers, Ind., USA) were covalently coated with biotin-binding proteins. Microparticles (1*108 pcs) were washed twice with H20 by sequential centrifuging (5000 g; 3 min) and aspiration, and resuspended in 200 μl PB buffer (50 mM NaH2PO4-HCl, pH 3.0). A solution of biotin binding protein (50 μl, 1 mg/ml or 3 mg/ml, 50 mM Na-acetate pH 4.0) was added while vortexing. The suspension was incubated for 1 h (500 rpm; 23° C.). Particles were washed with PB and with MES buffer (50 mM, pH 5.5) and suspended in MES buffer (200 μl). […] After the last wash particles were suspended in 100 μl volume and concentration of particles was determined with Multisizer 3 Coulter Counter (Beckman Coulter, Fullerton, Calif., USA). […]
Microparticles (5*106 pcs) were suspended in 900 μl of assay buffer and aliquoted in […] PCR-tubes (i-v; 180 μl/aliquot). […] The samples were measured with ArcDia TPX PlateReader (ArcDia Ltd.) (Soini, E., Meltola, N. J., Soini, A. E., Soukka, J., Soini, J. T. & Hanninen, P. E. (2000) Biochem. Soc. Trans. 28, 70-74). […]
The fluorescence emission efficiencies of the BF523-biotin conjugate (200 nM) was determined before and after the incubation (30 min) at 95° C. […]

Series [3] is described as follows: Non-reducing SDS-PAGE thermostability, oligomeric forms after boiling. It counts as physicochemical. To be noted: boiled 20 minutes. Here is the method:
The heat stability of the AVRs was studied by using an SDS-PAGE-based method (Bayer, E. A., Ehrlich-Rogozinski, S. and Wilchek, M. (1996) Electrophoresis 17, 1319-1324). In this method, each protein sample was divided into two fractions one of which was kept biotin-free and the other was supplemented with an excess of biotin. The samples were then mixed with denaturing SDS-PAGE sample buffer (containing β-mercaptoethanol) and incubated at a given temperature for 20 minutes. After heat treatment, the samples were subjected to SDS-PAGE and visualised by staining with Coomassie brilliant blue. The relative proportions of tetrameric and monomeric forms of the AVR proteins (with avidin as the control) were detected. A similar assay, with β-mercaptoethanol omitted from the sample buffer, was performed to examine the presence of intersubunit disulfide-bridges. Sensitivity to proteinase K was studied both in the absence and in the presence of biotin as described (Laitinen, O. H., Airenne, K. J., Marttila, A. T., Kulik, T., Porkka, E., Bayer, E. A., Wilchek, M. and Kulomaa, M. S. (1999) FEBS Lett. 461, 52-8). The isoelectric point of each AVR was determined by isoelectric focusing as previously reported (Marttila, A. T., Airenne, K. J., Laitinen, O. H., Kulik, T., Bayer, E. A., Wilchek, M. and Kulomaa, M. S. (1998) FEBS Lett. 441, 313-317). The glycosylation patterns of the AVR proteins were studied by treating the proteins with Endo Hf and PNGase F glycosidase according to the manufacturer's instructions (New England Biolabs, Mass., USA).

Like-named read-outs stand apart in the source and are kept apart here.

B1: AVR4/5: Recombinant chicken avidin-related protein 4/5 (AVR4 and AVR5 identical in coding sequence) (protein, UniProt P56734 25-150, looked up)
Avidin-related protein 4/5: ARKCSLTGKWTNNLGSIMTIRAVNSRGEFTGTYLTAVADNPGNITLSPLLGIQHKRASQPTFGFTVHWNFSESTTVFTGQCFIDRNGKEVLKTMWLLRSSVNDISYDWKATRVGYNNFTRLCTVEE
Regarding B1, in series [1], the kass result is “(7.0 ± 2.1) × 10^3 M^−1s^−1” and the kdiss entry is recorded as “(1.6 ± 1.4) × 10^−3 s^−1”. The Kd (as a rule, the equilibrium constant for the complex coming apart) in series [1] (50 mM borate pH 9.5, 1 M NaCl, read-out: Kd detected from the equilibrium response data) worked out at 160 nM. In addition, in series [1] (pH 9.5, 1 M NaCl, read-out: Kd detected directly from the binding curves), the Kd was found to be 230 nM. Besides, the “original signal after heat treatment of coated particles” value in series [2] (30 minutes at 95° C., BF523-biotin added after treatment (iv)) was 93%. Further, the “capacity of coated particles” value in series [2] (BF523-biotin binding, no heat treatment (i, iii)) is given as “remarkably higher”. Also, in series [3], the “Dimeric form, relative proportion” value was found to be 50 percentage and the “Monomeric form, relative proportion” value worked out at 50 percentage.

The values are drawn from patent US20060281899A1, “Mutants of biotin binding protein” (priority 2002, published 2006).
